Laboratory results reported in patent US20050271651A1, “Inhibition of bright function as a treatment for excessive immunoglobulin production” (Oklahoma Medical Research Foundation, published 2005).

B1: mouse Bright, native (untagged) wild-type (other, UniProt Q62431 1-601, looked up)
chain: MKLQAVMETLIQRQQRARQELEARQAPPPPPPEPTGVRARTTMTDEDREPENARMHRTQMAALAAMRAAAAGLGHPSSPGGSEDGPPISGDEDTAREGTLSSPALHGSVLEGAGHAEGDRHLMDVGSDDDDTKSKWEEQELEELGEEEEEEEEEDDFEEEEEEEEGLGPPESASLGTAGLFTRKAPPAQAFRGDGGPRMLSGPERLGPGPAHPSHMASQMPPPDHGDWTFEEQFKQLYELDADPKRKEFLDDLFSFMQKRGTPVNRIPIMAKQVLDLFMLYVLVTEKGGLVEVINKKLWREITKGLNLPTSITSAAFTLRTQYMKYLYPYECERRGLSSPNELQAAIDSNRREGRRQSFGGSLFAYSPSGAHSMLPSPKLPVTPLGLAASTNGSSITPAPKIKKEEDSAIPITVPGRLPVSLAGHPVVAAQAAAVQAAAAQAAVAAQAAALEQLREKLESTEPPEKKMALVADEQQRLMQRAVQQSFLAMTAQLPMNIRINSQASESRQDSAVSLTSANGSNSISMSVEMNGIVYTGVLFAQPPPPTAPSAPGKGGVSSIGTNTTTGSRTGASGSTVSGGQVGLPGVSTPTMSSTSNNSLP
notes: range 1-601; Untagged protein, tested in three forms: expressed in CHO cells, in vitro translated, or endogenous in the mouse B cell lines BCg3R-1d and M12g3Ri; Found as a dimer in solution by size exclusion chromatography; also called native Bright; wild-type Bright

What was measured:
[1] = molecular target: mouse Bright, wild-type, C-terminal myc-his tagged (mouse) (UniProt Q62431); experiment: cell-based or functional assay
[2] = molecular target: T1, mouse Bright, native (untagged) wild-type (mouse) (UniProt Q62431); experiment: cell-based or functional assay
T1 sequence (looked up): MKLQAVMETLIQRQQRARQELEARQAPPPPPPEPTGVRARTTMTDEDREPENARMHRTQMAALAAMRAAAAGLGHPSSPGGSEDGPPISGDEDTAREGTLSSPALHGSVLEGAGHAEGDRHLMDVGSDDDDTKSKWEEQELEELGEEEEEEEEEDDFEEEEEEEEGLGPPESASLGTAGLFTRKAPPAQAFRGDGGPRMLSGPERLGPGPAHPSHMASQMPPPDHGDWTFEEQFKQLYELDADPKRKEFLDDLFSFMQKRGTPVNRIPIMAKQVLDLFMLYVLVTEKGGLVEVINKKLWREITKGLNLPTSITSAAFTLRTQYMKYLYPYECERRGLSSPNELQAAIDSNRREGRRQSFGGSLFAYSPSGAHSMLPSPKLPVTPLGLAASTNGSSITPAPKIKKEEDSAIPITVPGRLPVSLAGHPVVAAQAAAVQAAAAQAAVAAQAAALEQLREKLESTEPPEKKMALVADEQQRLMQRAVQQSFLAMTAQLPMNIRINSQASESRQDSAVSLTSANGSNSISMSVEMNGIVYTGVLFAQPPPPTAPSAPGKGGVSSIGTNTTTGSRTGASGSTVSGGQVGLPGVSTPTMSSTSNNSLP

[3] = molecular target: the molecule itself; experiment: size exclusion chromatography of nuclear extracts, western blot of fractions
Method: (§1) FIGS. 11A-B—Tagged Bright proteins dimerize with native Bright. (FIG. 11A) Nuclear extracts from cells expressing Bright protein were subjected to size exclusion chromatography and protein fractions were analyzed for Bright by western blotting (lower panel). Data are presented graphically relative to molecular weight standards in the upper panel and are representative of four experiments. (FIG. 11B) C-terminal myc-his tagged Bright was either singly or coexpressed in CHO cells with native Bright. […] Immunoprecipitations using anti-myc Ab (middle panel) and anti-Sp1 as an isotype control (bottom panel) were performed with each of the transfected extracts and developed with anti-Bright reagents. Arrows indicate immunoglobulin heavy chain cross-reactive with the secondary reagent. Data are representative of two separate experiments.
Column chromatography. Nuclear extracts from CHO cells transfected with the full-length Bright expression plasmid (Herrscher et al., 1995) were centrifuged at 10,000×g to remove aggregates and applied to a pre-calibrated Bio-Gel A 0.5 m size exclusion column (Bio-Rad, Hercules, Calif.) in 0.05 M Tris-HCl, pH 8.0, 0.1 M KCl and 20% glycerol according to the manufacturer's directions. The column was calibrated before and after use with Bio-Rad gel filtration standards to ensure maintenance of column integrity. […]

[4] = molecular target: B1; experiment: co-expression in CHO cells, anti-myc immunoprecipitation, anti-Bright blot
Method: as §1
To determine if the mutated proteins formed heterodimers with wild-type Bright, his-myc-tagged mutant forms of Bright were co-expressed in CHO cells with native wild-type Bright. Tagged proteins were distinguished from native Bright by the slight size differences in western blots (FIG. 11B) and were confirmed using anti-tag antibodies (not shown). Anti-myc antibodies were used to immunoprecipitate the tagged proteins and blots were developed with anti-Bright (FIG. 11B). In every case, a lower molecular weight band was detected that reflected the presence of native Bright.

[5] = molecular target: human Btk, endogenous in the B cell lines CL01 and 300212 (human, UniProt Q06187 2-659); experiment: EMSA supershift with anti-Btk, nuclear extracts of CL01 and 300212 cells
Sequence of human Btk, endogenous in the B cell lines CL01 and 300212 (Q06187 2-659 limits assumed): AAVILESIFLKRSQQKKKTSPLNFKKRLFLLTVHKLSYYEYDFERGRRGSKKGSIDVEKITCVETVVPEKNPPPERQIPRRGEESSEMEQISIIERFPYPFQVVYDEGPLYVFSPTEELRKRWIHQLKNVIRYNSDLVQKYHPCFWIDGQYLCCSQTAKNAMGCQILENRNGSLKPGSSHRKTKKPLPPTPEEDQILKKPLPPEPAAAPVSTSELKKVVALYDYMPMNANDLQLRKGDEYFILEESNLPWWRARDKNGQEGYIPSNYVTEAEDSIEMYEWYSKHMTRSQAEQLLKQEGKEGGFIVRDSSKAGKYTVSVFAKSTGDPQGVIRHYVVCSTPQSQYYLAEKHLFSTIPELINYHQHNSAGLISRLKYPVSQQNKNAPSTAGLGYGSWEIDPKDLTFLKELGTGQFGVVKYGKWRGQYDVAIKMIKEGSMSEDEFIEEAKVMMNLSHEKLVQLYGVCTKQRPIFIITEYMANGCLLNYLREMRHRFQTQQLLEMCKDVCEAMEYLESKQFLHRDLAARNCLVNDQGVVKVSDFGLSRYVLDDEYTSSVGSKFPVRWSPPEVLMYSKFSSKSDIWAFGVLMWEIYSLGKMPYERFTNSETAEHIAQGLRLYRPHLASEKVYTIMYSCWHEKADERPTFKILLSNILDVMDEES
Method: FIG. 7—Btk associates with Bright in a subset of DNA-bound complexes. Mobility-shift assays were performed with nuclear extracts from two B cell lines (CL01 and 300212) and the T cell line, Molt-4. Anti-sera to CDP or the pleckstrin domain of Btk was added as in FIG. 2A-D. In some cases the anti-Btk sera was diluted 1:10 with PBS (0.1) prior to addition. Data are representative of six experiments.
Electrophoretic mobility shift assays (EMSAs). Nuclear extracts were prepared by hypotonic lysis, protein concentrations were quantified with Bradford reagents (BioRad, Richmond, Calif.), and EMSAs were performed in 4% nondenaturing acrylamide gels after incubation for 15 min at 37° C. with gamma-³²P-labeled probe, as previously described (Buchanan et al., 1995). The prototypic Bright binding site (a 150 base pair Bam HI-Fok I fragment called bf150) from the S107 V1 5′ flanking sequence (Webb et al., 1991) was used as a probe. In some instances, antibodies were added 5 min before incubation with the probe. […] A double-stranded oligo containing the 45 base pair foot-printed Bright binding site within bf150 described in Webb et al. (1991) was used as a specific competitor in increasing concentrations and a mutated version of that oligonucleotide containing the double-stranded sequence corresponding to 5′-[…]-3′ (SEQ ID NO:6) was used as a non-specific competitor. […]

Q: How did the V1 transcription relative to wild-type Btk (Real Time PCR, CHO cells) [1] turn out when Btk xid mutant (R28C) (enzyme) was run?
A: 50%

Q: With “Bruton's tyrosine kinase (Btk), wild-type, ectopically expressed or recombinant (enzyme)” as the molecule, how does the Bright DNA-binding activity remaining after competitor DNA (EMSA, in vitro translated Bright plus recombinant Btk) [2] read?
A: < 50 % reduction

Q: Does B1 bind [3]?
A: binds

B2: mouse Bright F317A, C-terminal myc-his tagged (other, UniProt Q62431 1-601, looked up)
chain: MKLQAVMETLIQRQQRARQELEARQAPPPPPPEPTGVRARTTMTDEDREPENARMHRTQMAALAAMRAAAAGLGHPSSPGGSEDGPPISGDEDTAREGTLSSPALHGSVLEGAGHAEGDRHLMDVGSDDDDTKSKWEEQELEELGEEEEEEEEEDDFEEEEEEEEGLGPPESASLGTAGLFTRKAPPAQAFRGDGGPRMLSGPERLGPGPAHPSHMASQMPPPDHGDWTFEEQFKQLYELDADPKRKEFLDDLFSFMQKRGTPVNRIPIMAKQVLDLFMLYVLVTEKGGLVEVINKKLWREITKGLNLPTSITSAAATLRTQYMKYLYPYECERRGLSSPNELQAAIDSNRREGRRQSFGGSLFAYSPSGAHSMLPSPKLPVTPLGLAASTNGSSITPAPKIKKEEDSAIPITVPGRLPVSLAGHPVVAAQAAAVQAAAAQAAVAAQAAALEQLREKLESTEPPEKKMALVADEQQRLMQRAVQQSFLAMTAQLPMNIRINSQASESRQDSAVSLTSANGSNSISMSVEMNGIVYTGVLFAQPPPPTAPSAPGKGGVSSIGTNTTTGSRTGASGSTVSGGQVGLPGVSTPTMSSTSNNSLP
notes: range 1-601; not shown: C-terminal myc-his tag from vector pcDNA4/TO/myc-His B
Q: Does B2 bind [4]?
A: binds

B3: mouse Bright double point mutant (W299A and Y330A), C-terminal myc-his tagged (other, UniProt Q62431 1-601, looked up)
chain: MKLQAVMETLIQRQQRARQELEARQAPPPPPPEPTGVRARTTMTDEDREPENARMHRTQMAALAAMRAAAAGLGHPSSPGGSEDGPPISGDEDTAREGTLSSPALHGSVLEGAGHAEGDRHLMDVGSDDDDTKSKWEEQELEELGEEEEEEEEEDDFEEEEEEEEGLGPPESASLGTAGLFTRKAPPAQAFRGDGGPRMLSGPERLGPGPAHPSHMASQMPPPDHGDWTFEEQFKQLYELDADPKRKEFLDDLFSFMQKRGTPVNRIPIMAKQVLDLFMLYVLVTEKGGLVEVINKKLAREITKGLNLPTSITSAAFTLRTQYMKYLYPAECERRGLSSPNELQAAIDSNRREGRRQSFGGSLFAYSPSGAHSMLPSPKLPVTPLGLAASTNGSSITPAPKIKKEEDSAIPITVPGRLPVSLAGHPVVAAQAAAVQAAAAQAAVAAQAAALEQLREKLESTEPPEKKMALVADEQQRLMQRAVQQSFLAMTAQLPMNIRINSQASESRQDSAVSLTSANGSNSISMSVEMNGIVYTGVLFAQPPPPTAPSAPGKGGVSSIGTNTTTGSRTGASGSTVSGGQVGLPGVSTPTMSSTSNNSLP
notes: range 1-601; also called DP; DP Bright; not shown: C-terminal myc-his tag from vector pcDNA4/TO/myc-His B
Q: Does B3 bind [4]?
A: binds

B4: mouse Bright Y330A, C-terminal myc-his tagged (other, UniProt Q62431 1-601, looked up)
chain: MKLQAVMETLIQRQQRARQELEARQAPPPPPPEPTGVRARTTMTDEDREPENARMHRTQMAALAAMRAAAAGLGHPSSPGGSEDGPPISGDEDTAREGTLSSPALHGSVLEGAGHAEGDRHLMDVGSDDDDTKSKWEEQELEELGEEEEEEEEEDDFEEEEEEEEGLGPPESASLGTAGLFTRKAPPAQAFRGDGGPRMLSGPERLGPGPAHPSHMASQMPPPDHGDWTFEEQFKQLYELDADPKRKEFLDDLFSFMQKRGTPVNRIPIMAKQVLDLFMLYVLVTEKGGLVEVINKKLWREITKGLNLPTSITSAAFTLRTQYMKYLYPAECERRGLSSPNELQAAIDSNRREGRRQSFGGSLFAYSPSGAHSMLPSPKLPVTPLGLAASTNGSSITPAPKIKKEEDSAIPITVPGRLPVSLAGHPVVAAQAAAVQAAAAQAAVAAQAAALEQLREKLESTEPPEKKMALVADEQQRLMQRAVQQSFLAMTAQLPMNIRINSQASESRQDSAVSLTSANGSNSISMSVEMNGIVYTGVLFAQPPPPTAPSAPGKGGVSSIGTNTTTGSRTGASGSTVSGGQVGLPGVSTPTMSSTSNNSLP
notes: as for B2
Q: Does B4 bind [4]?
A: binds

B5: mouse Bright W299A, C-terminal myc-his tagged (other, UniProt Q62431 1-601, looked up)
chain: MKLQAVMETLIQRQQRARQELEARQAPPPPPPEPTGVRARTTMTDEDREPENARMHRTQMAALAAMRAAAAGLGHPSSPGGSEDGPPISGDEDTAREGTLSSPALHGSVLEGAGHAEGDRHLMDVGSDDDDTKSKWEEQELEELGEEEEEEEEEDDFEEEEEEEEGLGPPESASLGTAGLFTRKAPPAQAFRGDGGPRMLSGPERLGPGPAHPSHMASQMPPPDHGDWTFEEQFKQLYELDADPKRKEFLDDLFSFMQKRGTPVNRIPIMAKQVLDLFMLYVLVTEKGGLVEVINKKLAREITKGLNLPTSITSAAFTLRTQYMKYLYPYECERRGLSSPNELQAAIDSNRREGRRQSFGGSLFAYSPSGAHSMLPSPKLPVTPLGLAASTNGSSITPAPKIKKEEDSAIPITVPGRLPVSLAGHPVVAAQAAAVQAAAAQAAVAAQAAALEQLREKLESTEPPEKKMALVADEQQRLMQRAVQQSFLAMTAQLPMNIRINSQASESRQDSAVSLTSANGSNSISMSVEMNGIVYTGVLFAQPPPPTAPSAPGKGGVSSIGTNTTTGSRTGASGSTVSGGQVGLPGVSTPTMSSTSNNSLP
notes: as for B2
Q: Does B5 bind [4]?
A: binds

B6: human Bright (B cell regulator of IgH transcription) (other)
chain: MKLQAVMETLLQRQQRARQELEARQQLPPDPPAAPPGRARAAPDEDREPESARMQRAQMAALAAMRAAAAGLGHPASPGGSEDGPPGSEEEDAAREGTPGSPGRGREGPGEEHFEDMASDEDMKPKWEEEEMEEDLGEDEEEEEEDYEDEEEEEDEEGLGPPGPASLGTTALFPRKAQPPQAFRGDGVPRVLGGQERPGPGPAHPGGAAHVAPQLQPPDHGDWTYEEQFKQLYELDGDPKRKEFLDDLFSFMQKRGTPVNRIPIMAKQVLDLFMLYVLVTEKGGLVEVINKKLWREITKGLNLPTSITSAAFTLRTQYMKYLYPYECEKRGLSNPNELQAAIDSNRREGRRQSFGGSLFAYSPGGAHGMLSSPKLPVSSLGLAASTNGSSITPAPKIKKEEDSAIPITVPGRLPVSLAGHPVVAAQAAAVQAAAAQAAVAAQAAALEQLREKLESAEPPEKKMALVADEQQRLMQRALQQNFLAMAAQLPMSIRINSQASESRQDSAVNLTGTNGSNSISMSVEINGIMYTGVLFAQPPAPTPTSAPNKGGGGGGGSSSNAGGRGGNTGTSGGQAGPAGLSTPSTSTSNNSLP
notes: Transcription factor; Tested as in vitro translated protein from a full-length clone, and as endogenous protein in nuclear extracts of the human cell lines CL01, K562 and 300212; also called Dril 1; DRIL1
Q: Does B6 bind [5]?
A: binds
